Paper PMC2787366

What was measured:
Assay in all cases: fluorescence polarisation
[1] = target: H3 peptide dimethylated on lysine 9 (fluorescence polarization)
[2] = target: H3K9me3 peptide (fluorescence polarization)
[3] = target: G9aK185me3 peptide (fluorescence polarization)

fold weaker than with the H3K9me3 peptide [1]: 1.5 fold
Kd [2]: 2 µM
Kd [3]: 8 µM
B1: hCDYL1b chromodomain (1–78 aa) (domain or fragment)
chain: MASEELYEVERIVDKRKNKKGKTEYLVRWKGYDSEDDTWEPEQHLVNCEEYIHDFNRRHTEKQKESTLTRTNRTSPNN
